Results reported in the supplement of paper PMC10266784.

B1: library; numbered along this chain (parent)
chain: MAAAAAAAAEQQSSNGPVKKSMREKAVERRSVNKEHNSNFKAGYIPIDEDRLHKTGLRGRKGNLAICVIILLFILAVINLIITLVIWAVIRIGPNGCDSMEFHESGLLRFKQVSDMGVIHPLYKSTVGGRRNENLVITGNNQPIVFQQGTTKLSVENNKTSITSDIGMQFFDPRTQNILFSTDYETHEFHLPSGVKSLNVQKASTERITSNATSDLNIKVDGRAIVRGNEGVFIMGKTIEFHMGGNMELKAENSIILNGSVMVSTTRLPSSSSGDQLGSGDWVRYKLCMCADGTLFKVQVTSQNMGCQISDNPCGNTH

Variants of: B1
Experiment: SGCB cell-surface expression functional score (HA stain, bin4 vs bin1, normalised to synonymous) (log10 ratio); higher = more cell-surface SGCB (functional)
Procedure: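 Deep mutational scan of full-length human SGCB (YFP-SGCB-HA, NNN codon sublibraries A-F) delivered by lentivirus at low MOI into ADG-HEK293 cells stably expressing SGCA, SGCD and SGCG. YFP-positive cells were stained for surface HA on unpermeabilized cells and FACS-sorted into bins. The functional score is log10(frequency in high bin 4 / frequency in low bin 1), normalised per chunk so that synonymous variants have mean 0 and SD 0.5. Scores are the median over codons and over duplicate biological replicates; scores below -0.5 are called non-functional. Scale: negative means deleterious.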

Variant | SGCB cell-surface expression functional score (log10)
MAYAAAAAAEQQSSNGPVKKSMREKAVERRSVNKEHNSNFKAGYIPIDEDRLHKTGLRGRKGNLAICVIILLFILAVINLIITLVIWAVIRIGPNGCDSMEFHESGLLRFKQVSDMGVIHPLYKSTVGGRRNENLVITGNNQPIVFQQGTTKLSVENNKTSITSDIGMQFFDPRTQNILFSTDYETHEFHLPSGVKSLNVQKASTERITSNATSDLNIKVDGRAIVRGNEGVFIMGKTIEFHMGGNMELKAENSIILNGSVMVSTTRLPSSSSGDQLGSGDWVRYKLCMCADGTLFKVQVTSQNMGCQISDNPCGNTH [A3Y] | 0.27
MAKAAAAAAEQQSSNGPVKKSMREKAVERRSVNKEHNSNFKAGYIPIDEDRLHKTGLRGRKGNLAICVIILLFILAVINLIITLVIWAVIRIGPNGCDSMEFHESGLLRFKQVSDMGVIHPLYKSTVGGRRNENLVITGNNQPIVFQQGTTKLSVENNKTSITSDIGMQFFDPRTQNILFSTDYETHEFHLPSGVKSLNVQKASTERITSNATSDLNIKVDGRAIVRGNEGVFIMGKTIEFHMGGNMELKAENSIILNGSVMVSTTRLPSSSSGDQLGSGDWVRYKLCMCADGTLFKVQVTSQNMGCQISDNPCGNTH [A3K] | 0.06
MAVAAAAAAEQQSSNGPVKKSMREKAVERRSVNKEHNSNFKAGYIPIDEDRLHKTGLRGRKGNLAICVIILLFILAVINLIITLVIWAVIRIGPNGCDSMEFHESGLLRFKQVSDMGVIHPLYKSTVGGRRNENLVITGNNQPIVFQQGTTKLSVENNKTSITSDIGMQFFDPRTQNILFSTDYETHEFHLPSGVKSLNVQKASTERITSNATSDLNIKVDGRAIVRGNEGVFIMGKTIEFHMGGNMELKAENSIILNGSVMVSTTRLPSSSSGDQLGSGDWVRYKLCMCADGTLFKVQVTSQNMGCQISDNPCGNTH [A3V] | 0.12
MAHAAAAAAEQQSSNGPVKKSMREKAVERRSVNKEHNSNFKAGYIPIDEDRLHKTGLRGRKGNLAICVIILLFILAVINLIITLVIWAVIRIGPNGCDSMEFHESGLLRFKQVSDMGVIHPLYKSTVGGRRNENLVITGNNQPIVFQQGTTKLSVENNKTSITSDIGMQFFDPRTQNILFSTDYETHEFHLPSGVKSLNVQKASTERITSNATSDLNIKVDGRAIVRGNEGVFIMGKTIEFHMGGNMELKAENSIILNGSVMVSTTRLPSSSSGDQLGSGDWVRYKLCMCADGTLFKVQVTSQNMGCQISDNPCGNTH [A3H] | 0.3
MAQAAAAAAEQQSSNGPVKKSMREKAVERRSVNKEHNSNFKAGYIPIDEDRLHKTGLRGRKGNLAICVIILLFILAVINLIITLVIWAVIRIGPNGCDSMEFHESGLLRFKQVSDMGVIHPLYKSTVGGRRNENLVITGNNQPIVFQQGTTKLSVENNKTSITSDIGMQFFDPRTQNILFSTDYETHEFHLPSGVKSLNVQKASTERITSNATSDLNIKVDGRAIVRGNEGVFIMGKTIEFHMGGNMELKAENSIILNGSVMVSTTRLPSSSSGDQLGSGDWVRYKLCMCADGTLFKVQVTSQNMGCQISDNPCGNTH [A3Q] | 0.11
MAFAAAAAAEQQSSNGPVKKSMREKAVERRSVNKEHNSNFKAGYIPIDEDRLHKTGLRGRKGNLAICVIILLFILAVINLIITLVIWAVIRIGPNGCDSMEFHESGLLRFKQVSDMGVIHPLYKSTVGGRRNENLVITGNNQPIVFQQGTTKLSVENNKTSITSDIGMQFFDPRTQNILFSTDYETHEFHLPSGVKSLNVQKASTERITSNATSDLNIKVDGRAIVRGNEGVFIMGKTIEFHMGGNMELKAENSIILNGSVMVSTTRLPSSSSGDQLGSGDWVRYKLCMCADGTLFKVQVTSQNMGCQISDNPCGNTH [A3F] | 0.22
MALAAAAAAEQQSSNGPVKKSMREKAVERRSVNKEHNSNFKAGYIPIDEDRLHKTGLRGRKGNLAICVIILLFILAVINLIITLVIWAVIRIGPNGCDSMEFHESGLLRFKQVSDMGVIHPLYKSTVGGRRNENLVITGNNQPIVFQQGTTKLSVENNKTSITSDIGMQFFDPRTQNILFSTDYETHEFHLPSGVKSLNVQKASTERITSNATSDLNIKVDGRAIVRGNEGVFIMGKTIEFHMGGNMELKAENSIILNGSVMVSTTRLPSSSSGDQLGSGDWVRYKLCMCADGTLFKVQVTSQNMGCQISDNPCGNTH [A3L] | -0.02
MARAAAAAAEQQSSNGPVKKSMREKAVERRSVNKEHNSNFKAGYIPIDEDRLHKTGLRGRKGNLAICVIILLFILAVINLIITLVIWAVIRIGPNGCDSMEFHESGLLRFKQVSDMGVIHPLYKSTVGGRRNENLVITGNNQPIVFQQGTTKLSVENNKTSITSDIGMQFFDPRTQNILFSTDYETHEFHLPSGVKSLNVQKASTERITSNATSDLNIKVDGRAIVRGNEGVFIMGKTIEFHMGGNMELKAENSIILNGSVMVSTTRLPSSSSGDQLGSGDWVRYKLCMCADGTLFKVQVTSQNMGCQISDNPCGNTH [A3R] | 0.15
MAPAAAAAAEQQSSNGPVKKSMREKAVERRSVNKEHNSNFKAGYIPIDEDRLHKTGLRGRKGNLAICVIILLFILAVINLIITLVIWAVIRIGPNGCDSMEFHESGLLRFKQVSDMGVIHPLYKSTVGGRRNENLVITGNNQPIVFQQGTTKLSVENNKTSITSDIGMQFFDPRTQNILFSTDYETHEFHLPSGVKSLNVQKASTERITSNATSDLNIKVDGRAIVRGNEGVFIMGKTIEFHMGGNMELKAENSIILNGSVMVSTTRLPSSSSGDQLGSGDWVRYKLCMCADGTLFKVQVTSQNMGCQISDNPCGNTH [A3P] | 0.42
MAWAAAAAAEQQSSNGPVKKSMREKAVERRSVNKEHNSNFKAGYIPIDEDRLHKTGLRGRKGNLAICVIILLFILAVINLIITLVIWAVIRIGPNGCDSMEFHESGLLRFKQVSDMGVIHPLYKSTVGGRRNENLVITGNNQPIVFQQGTTKLSVENNKTSITSDIGMQFFDPRTQNILFSTDYETHEFHLPSGVKSLNVQKASTERITSNATSDLNIKVDGRAIVRGNEGVFIMGKTIEFHMGGNMELKAENSIILNGSVMVSTTRLPSSSSGDQLGSGDWVRYKLCMCADGTLFKVQVTSQNMGCQISDNPCGNTH [A3W] | 0.1
